# Reference: the supplement of paper PMC10567573
# B1: KCNA3 (parent)
# chain: YQSGGRIRRPVNVPIDIFSEEIRF
# B2: HDAC6 (parent)
# chain: DLMETTQYMNEGELRVLADTYDSV
# Variants of: B1
# Experiment: protein stability index of a GFP-peptide fusion (GPS, HEK-293T) (PSI 1-6); higher = more stable
# Details: c terminus: a fixed tail appended
# 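Further: lentivirally expressed fusions sorted by FACS into six bins by GFP to DsRed ratio, PSI derived from sequencing read proportions per bin multiplied by bin number.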
row,Variant,protein stability index
1,YQAGGRIRRPVNVPIDIFSEEIRF [S3A],2.82
2,YQDGGRIRRPVNVPIDIFSEEIRF [S3D],2.41
3,YQFGGRIRRPVNVPIDIFSEEIRF [S3F],1.64
4,YQCGGRIRRPVNVPIDIFSEEIRF [S3C],1.46
5,YQHGGRIRRPVNVPIDIFSEEIRF [S3H],2.84
6,YQLGGRIRRPVNVPIDIFSEEIRF [S3L],2.23
7,YQEGGRIRRPVNVPIDIFSEEIRF [S3E],2.93
8,YQIGGRIRRPVNVPIDIFSEEIRF [S3I],1.58
9,YQGGGRIRRPVNVPIDIFSEEIRF [S3G],1.81
10,YQKGGRIRRPVNVPIDIFSEEIRF [S3K],2.24
11,LQSGGRIRRPVNVPIDIFSEEIRF [Y1L],2.08
12,EQSGGRIRRPVNVPIDIFSEEIRF [Y1E],2.74
13,QQSGGRIRRPVNVPIDIFSEEIRF [Y1Q],2.76
14,VQSGGRIRRPVNVPIDIFSEEIRF [Y1V],2.58
15,RQSGGRIRRPVNVPIDIFSEEIRF [Y1R],2.67
16,GQSGGRIRRPVNVPIDIFSEEIRF [Y1G],2.83
17,AQSGGRIRRPVNVPIDIFSEEIRF [Y1A],3.31
18,DQSGGRIRRPVNVPIDIFSEEIRF [Y1D],3.1
19,KQSGGRIRRPVNVPIDIFSEEIRF [Y1K],2.77
20,FQSGGRIRRPVNVPIDIFSEEIRF [Y1F],1.83
21,CQSGGRIRRPVNVPIDIFSEEIRF [Y1C],2.49
22,MQSGGRIRRPVNVPIDIFSEEIRF [Y1M],2.42
23,SQSGGRIRRPVNVPIDIFSEEIRF [Y1S],3.58
24,HQSGGRIRRPVNVPIDIFSEEIRF [Y1H],2.98

row,Variant,protein stability index
1,NQSGGRIRRPVNVPIDIFSEEIRF [Y1N],2.89
2,WQSGGRIRRPVNVPIDIFSEEIRF [Y1W],2.48
3,PQSGGRIRRPVNVPIDIFSEEIRF [Y1P],3.43
4,TQSGGRIRRPVNVPIDIFSEEIRF [Y1T],2.55
5,IQSGGRIRRPVNVPIDIFSEEIRF [Y1I],2.53
6,YKSGGRIRRPVNVPIDIFSEEIRF [Q2K],1.92
7,YMSGGRIRRPVNVPIDIFSEEIRF [Q2M],2.04
8,YVSGGRIRRPVNVPIDIFSEEIRF [Q2V],1.94
9,YHSGGRIRRPVNVPIDIFSEEIRF [Q2H],3.93
10,YPSGGRIRRPVNVPIDIFSEEIRF [Q2P],2.07
11,YWSGGRIRRPVNVPIDIFSEEIRF [Q2W],1.87
12,YTSGGRIRRPVNVPIDIFSEEIRF [Q2T],2.47
13,YGSGGRIRRPVNVPIDIFSEEIRF [Q2G],2.7
14,YRSGGRIRRPVNVPIDIFSEEIRF [Q2R],2.07
15,YNSGGRIRRPVNVPIDIFSEEIRF [Q2N],2.52
16,YCSGGRIRRPVNVPIDIFSEEIRF [Q2C],2.19
17,YASGGRIRRPVNVPIDIFSEEIRF [Q2A],2.35
18,YESGGRIRRPVNVPIDIFSEEIRF [Q2E],2.33
19,YLSGGRIRRPVNVPIDIFSEEIRF [Q2L],2.41
20,YFSGGRIRRPVNVPIDIFSEEIRF [Q2F],1.79
21,YDSGGRIRRPVNVPIDIFSEEIRF [Q2D],2.74
22,YYSGGRIRRPVNVPIDIFSEEIRF [Q2Y],2.46
23,YSSGGRIRRPVNVPIDIFSEEIRF [Q2S],1.96
24,YISGGRIRRPVNVPIDIFSEEIRF [Q2I],1.22

# Variants of: B2
# Experiment: as above
# Details: c terminus: a fixed tail appended
row,Variant,protein stability index
1,DLMETTQYMNEGELRVLADTYRSV [D22R],2.91
2,DLMETTQYMNEGELRVLADTYTSV [D22T],1.65
3,DLMETTQYMNEGELRVLADTYKSV [D22K],1.75
4,DLMETTQYMNEGELRVLADTYLSV [D22L],2.14
5,DLMETTQYMNEGELRVLADTYPSV [D22P],1.92
6,DLMETTQYMNEGELRVLADTYQSV [D22Q],2.29
7,DLMETTQYMNEGELRVLADTYSSV [D22S],1.55
8,DLMETTQYMNEGELRVLADTYYSV [D22Y],2.7
9,DLMETTQYMNEGELRVLADTYNSV [D22N],1.48
10,DLMETTQYMNEGELRVLADTYVSV [D22V],1.74
11,DLMETTQYMNEGELRVLADTYDSQ [V24Q],1.84
12,DLMETTQYMNEGELRVLADTYDSE [V24E],2.01
13,DLMETTQYMNEGELRVLADTYDSS [V24S],1.56
14,DLMETTQYMNEGELRVLADTYDSW [V24W],1.66
15,DLMETTQYMNEGELRVLADTYDSD [V24D],2.41
16,DLMETTQYMNEGELRVLADTYDSH [V24H],2.78
17,DLMETTQYMNEGELRVLADTYDSA [V24A],1.73
18,DLMETTQYMNEGELRVLADTYDSF [V24F],1.92
19,DLMETTQYMNEGELRVLADTYDSM [V24M],2.24
20,DLMETTQYMNEGELRVLADTYDSL [V24L],2.11
21,DLMETTQYMNEGELRVLADTYDSK [V24K],1.77
22,DLMETTQYMNEGELRVLADTYDSN [V24N],2.77
23,DLMETTQYMNEGELRVLADTYDST [V24T],1.63

row,Variant,protein stability index
1,DLMETTQYMNEGELRVLADTYDSR [V24R],1.86
2,DLMETTQYMNEGELRVLADTYDSC [V24C],1.42
3,DLMETTQYMNEGELRVLADTYDSP [V24P],2.11
4,DLMETTQYMNEGELRVLADTYDSG [V24G],2.1
5,DLMETTQYMNEGELRVLADTYDSY [V24Y],1.49
6,DLMETTQYMNEGELRVLADTYDSI [V24I],2.34
7,DLMETTQYMNEGELRVLADTYDLV [S23L],1.94
8,DLMETTQYMNEGELRVLADTYDNV [S23N],2.66
9,DLMETTQYMNEGELRVLADTYDGV [S23G],2.72
10,DLMETTQYMNEGELRVLADTYDRV [S23R],2.14
11,DLMETTQYMNEGELRVLADTYDVV [S23V],1.63
12,DLMETTQYMNEGELRVLADTYDMV [S23M],2.33
13,DLMETTQYMNEGELRVLADTYDEV [S23E],1.97
14,DLMETTQYMNEGELRVLADTYDWV [S23W],3.46
15,DLMETTQYMNEGELRVLADTYDQV [S23Q],1.24
16,DLMETTQYMNEGELRVLADTYDYV [S23Y],1.58
17,DLMETTQYMNEGELRVLADTYDIV [S23I],1.86
18,DLMETTQYMNEGELRVLADTYDDV [S23D],1.92
19,DLMETTQYMNEGELRVLADTYDPV [S23P],1.46
20,DLMETTQYMNEGELRVLADTYDCV [S23C],2.48
21,DLMETTQYMNEGELRVLADTYDHV [S23H],2.37
22,DLMETTQYMNEGELRVLADTYDTV [S23T],2.05
23,DLMETTQYMNEGELRVLADTYDKV [S23K],2.03
